Key:
[1] = system: CC(C)(O/N=C(\C(=O)N[C@@H]1C(=O)N2C(C(=O)[O-])=C(C[n+]3ccccc3)CS[C@H]12)c1csc(N)n1)C(=O)O; test: purified protein; details: 10 mM PBS, pH 7.4, 25°C, 10 nM enzyme
[2] = system: CO/N=C(\C(=O)N[C@@H]1C(=O)N2C(C(=O)O)=C(COC(C)=O)CS[C@H]12)c1csc(N)n1; test: purified protein; details: 10 mM PBS, pH 7.4, 25°C, 10 nM enzyme
[3] = system: C[C@@H](O)[C@H]1C(=O)N2C(C(=O)O)=C(SCCN=CN)C[C@H]12; test: purified protein; details: 10 mM PBS, pH 7.4, 25°C, 10 nM enzyme
[4] = system: C[C@@H](O)[C@H]1C(=O)N2C(C(=O)O)=C(S[C@@H]3CN[C@H](C(=O)N(C)C)C3)[C@H](C)[C@H]12; test: purified protein; details: 10 mM PBS, pH 7.4, 25°C, 10 nM enzyme
[5] = system: Cc1nnc(SCC2=C(C(=O)O)N3C(=O)[C@@H](NC(=O)Cn4cnnn4)[C@H]3SC2)s1; test: purified protein; details: 10 mM PBS, pH 7.4, 25°C, 10 nM enzyme
KPC-2 = KPC-2 (Klebsiella pneumoniae, UniProt Q9F663); test: steady-state hydrolysis, diode array spectrophotometer; details: 10 mM PBS, pH 7.4, 25°C; 10 nM enzyme

KPC-2 (Klebsiella pneumoniae)
Km [1]: 217 ± 6 µM | kcat [1]: 0.59 ± 0.83 s⁻¹ | kcat/Km [1]: 2700 ± 560 M⁻¹ s⁻¹ | Km [2]: 124 ± 6 µM | kcat [2]: 52 ± 6 s⁻¹ | Km [3]: 21 ± 2 µM | kcat [3]: 20 ± 1 s⁻¹ | kcat/Km [3]: 950000 ± 650000 M⁻¹ s⁻¹ | Km [4]: 16.2 ± 3.1 µM | kcat [4]: 4.1 ± 0.99 s⁻¹ | kcat/Km [4]: 250000 ± 61000 M⁻¹ s⁻¹ | Km [5]: 16 ± 1 µM | kcat [5]: 44 ± 2 s⁻¹ | kcat/Km [5]: 2.8e+06 ± 1e+06 M⁻¹ s⁻¹

O=C(Cc1cccs1)N[C@@H]1C(=O)N2C(C(=O)O)=C(/C=C/c3ccc([N+](=O)[O-])cc3[N+](=O)[O-])CS[C@H]12 [nitrocefin]
Km (KPC-2): 6.5 ± 2.4 µM
